# Source: patent US20080038257A1 (AVEO PHARMACEUTICALS, published 2008)
# Changes are numbered by the printed parent chain.
# B1: anti-hHGF monoclonal antibody 2F8 (antibody, mouse IgG1, kappa, V domains shown)
# VH: QVQLKQSGAELVRPGTSVKMSCKASGYTFTTYYIHWVNQRPGQGLEWIGKIGPGSGSTYYNEMFKDKATLTVDTSSSTAYMQLSSLTSDDSAVYFCARRGLGRGFDYWGQGTTLTVSS
# VL: DIVLTQSPASLAVSLGQRATISCKASQSVDYDGNSYINWYQQKPGQPPKVLIYVASNLESGIPARFSGSGSGTDFTLNIHPVEEEDAATYYCQQSIEDPPTFGAGTKLELKR
# B2: anti-hHGF monoclonal antibody 3D11 (antibody, mouse IgG1, kappa, V domains shown)
# VH: QVQLKESGPGLVAPSQSLSITCTVSGFSLTSYSLHWVRQPPGKGLEWLGVIWAGGNTNYNSSLMSRLTIRKDNSKSQVFLKMNSLQTDDTAMYYCARERFAYWGQGTLVTVSA
# VL: QIVLTQSPAIMSAYPGEKVTMTCSASSSVSYMHWYQQKSGTSPKRWIYDTSKLASGVPARFSGSGSGTSYSLTISSMEAEDAATYYCQQWSSNPLTFGAGTKLELKR
# B3: anti-hHGF monoclonal antibody 1A3 (antibody, mouse IgG1, kappa, V domains shown)
# VH: EVQLVESGGGLVQPGGSLKLSCAASEFTFSNYYMSWVRQTPEKRLQWVAYISPGGGSSYYPASVKGRFTISRDNAKNTLYLQMSSLKSEDTAMYYCARQGDGYYGDYAMDYWGQGTSVTVSS
# VL: DIQMTQSPASLSVSVGETVTITCRASENIYSNLAWYQQKQGKSPQLLVYAATNLADGVPSRFSGSGSGTQFSLKINSLQSEDFGTYYCQHFWGTPYTFGGGTKLEIKR
# B4: anti-hHGF monoclonal antibody 1D3 (antibody, mouse IgG1, kappa, V domains shown)
# VH: B3 VH with E26G, N31D, Q46E, P53S, S58T, A62D, M93I, A97V, T119I
# VL: B3 VL with A25T, V48I, K74R, T85R
# B5: anti-hHGF monoclonal antibody 1F3 (antibody, mouse IgG1, kappa, V domains shown)
# VH: B3 VH with P14S, E26G, Y33F, Q46E, P53S, S58T, A62D, A97V
# VL: B3 VL with A50D, N53H, A55P, T85S, K103R
# B6: anti-hHGF monoclonal antibody 3A12 (antibody, mouse IgG1, kappa, V domains shown)
# VH: B3 VH with L20I, E26G, Y33F, Q46E, P53S, S58T, A62D, S84N, A97V
# VL: B3 VL with S31I, Y49H, N53K, F71Y, T85S
# B7: anti-hHGF monoclonal antibody 2B8 (antibody, mouse IgG1, kappa)
# heavy: QVQLQQPGAELVKPGTSVKLSCKASGYTFTTYWMHWVNQRPGQGLEWIGEINPTNGHTNYNEKFKSKATLTVDKSSSTAYMQLSSLTSEDSAVYYCARNYVGSIFDYWGQGTTLTVSSAKTTPPSVYPLAPGSAAQTNSMVTLGCLVKGYFPEPVTVTWNSGSLSSGVHTFPAVLQSDLYTLSSSVTVPSSTWPSETVTCNVAHPASSTKVDKKIVPRDCGCKPCICTVPEVSSVFIFPPKPKDVLTITLTPKVTCVVVDISKDDPEVQFSWFVDDVEVHTAQTQPREEQFNSTFRSVSELPIMHQDWLNGKEFKCRVNSAAFPAPIEKTISKTKGRPKAPQVYTIPPPKEQMAKDKVSLTCMITDFFPEDITVEWQWNGQPAENYKNTQPIMDTDGSYFVYSKLNVQKSNWEAGNTFTCSVLHEGLHNHHTEKSLSHSPGK
# light: NIVMTQSPKSMSMSVGERVTLSCKASENVVSYVSWYQQKPAQSPKLLIYGASNRNTGVPDRFTGSGSATDFTLTISSVRAEDLADYHCGQSYNYPYTFGGGTRLEIKRADAAPTVSIFPPSSEQLTSGGASVVCFLNNFYPKDINVKWKIDGSERQNGVLNSWTDQDSKDSTYSMSSTLTLTKDEYERHNSYTCEATHKTSTSPIVKSFNRNEC
# B8: anti-hHGF monoclonal antibody 3B6 (antibody, mouse IgG1, kappa, V domains shown)
# VH: QVQLQQSGAELVRPGSSVKISCKASGYVFSSYWMNWVKQRPGQGLEWIGQIYPGDGDSNYNGNFKGKATLTADKSSSTAYMQLSSLTSEDSAVYFCASQLGLRENYFDYWGQGTTLTVSS
# VL: DIKMTQSPSSMYASLGERVTITCKASQDIKSYLSWFQQKPGKSPKTLIYRVNRLVDGVPSRFSGSGSGQDSSLTITSLENEDMGIYYCLQYDEFPFTFGGGTKLEIKR
# B9: HE2B8-1 (LR2B8HC + IgG1 G1m(3) allele 1 plus LR2B8LC + Kappa Km(3) allele 1) (antibody, V domains shown)
# VH: QVQLVQPGAEVVKPGTSVKLSCKASGYTFTTYWMHWVNQAPGQGLEWIGEINPTNGHTNYNEKFKGKATLTVDKSTSTAYMELSSLRSEDTAVYYCARNYVGSIFDYWGQGTLLTVSS
# VL: DIVMTQSPDSMAMSVGERVTLNCKASENVVSYVSWYQQKPGQSPKLLIYGASNRNTGVPDRFSGSGSATDFTLTISSVQAEDVADYHCGQSYNYPYTFGQGTKLEIKR
# B10: HE2B8-3 (LRMR2B8HC + IgG1 G1m(3) allele 1 plus LR2B8LC + Kappa Km(3) allele 1) (antibody, V domains shown)
# VH: B9 VH with V12K, N38R, E62Q, K65Q, K67R
# VL: B9 VL
# B11: HE2B8-2 (LR2B8HC + IgG1 G1m(3) allele 1 plus LRMR2B8LC + Kappa Km(3) allele 1) (antibody, V domains shown)
# VH: B9 VH
# VL: B9 VL with M11L, V15L, N55E, T56S
# B12: HE2B8-4 (LRMR2B8HC + IgG1 G1m(3) allele 1 plus LRMR2B8LC + Kappa Km(3) allele 1) (antibody, V domains shown)
# VH: B9 VH with V12K, N38R, E62Q, K65Q, K67R
# VL: B9 VL with M11L, V15L, N55E, T56S
# B13: sh2B8-9 (G1m(3)) = hu2B8 Hv5-51.1 + IgG1 constant G1m(3) allele 2 plus hu2B8 Kv1-39.1 + Kappa Km(3) allele 2 (antibody)
# heavy: not shown
# light: DIQMTQSPSSLSASVGDRVTITCKASENVVSYVSWYQQKPGKAPKLLIYGASNRNTGVPSRFSGSGSGTDFTLTISSLQPEDFATYYCGQSYNYPYTFGQGTKLEIKRTVAAPSVFIFPPSDEQLKSGTASVVCLLNNFYPREAKVQWKVDNALQSGNSQESVTEQDSKDSTYSLSSTLTLSKADYEKHKVYACEVTHQGLSSPVTKSFNRGEC
# Molecular target: T1, recombinant human HGF (R&D Systems, Catalog No. 294-HGN-025) (human, UniProt P14210 32-728)
# T1 sequence (P14210 32-728 limits assumed): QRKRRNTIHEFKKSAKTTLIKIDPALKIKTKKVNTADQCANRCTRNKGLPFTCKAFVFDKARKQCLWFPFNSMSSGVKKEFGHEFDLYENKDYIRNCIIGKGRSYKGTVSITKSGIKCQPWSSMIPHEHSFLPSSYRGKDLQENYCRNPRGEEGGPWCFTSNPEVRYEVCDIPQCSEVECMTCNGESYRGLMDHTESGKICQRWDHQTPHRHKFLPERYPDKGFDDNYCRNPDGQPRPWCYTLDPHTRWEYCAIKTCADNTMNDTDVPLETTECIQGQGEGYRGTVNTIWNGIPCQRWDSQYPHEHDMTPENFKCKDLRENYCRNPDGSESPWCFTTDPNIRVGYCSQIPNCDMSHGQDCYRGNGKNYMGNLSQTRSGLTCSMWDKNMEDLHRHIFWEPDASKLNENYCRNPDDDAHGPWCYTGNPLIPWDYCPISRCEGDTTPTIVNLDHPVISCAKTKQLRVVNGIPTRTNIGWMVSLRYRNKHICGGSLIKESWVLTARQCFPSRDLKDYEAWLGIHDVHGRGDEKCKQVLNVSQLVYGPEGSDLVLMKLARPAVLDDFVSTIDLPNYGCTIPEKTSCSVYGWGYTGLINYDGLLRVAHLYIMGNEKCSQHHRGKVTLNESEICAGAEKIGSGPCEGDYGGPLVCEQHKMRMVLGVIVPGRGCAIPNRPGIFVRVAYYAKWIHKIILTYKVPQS
# Assay: cell-based or functional assay
row,Binder,"EC50 in nM, HGF-stimulated c-Met phosphorylation in PC-3 cells, Average of Two Trials"
1,B1,1.39 nM
2,B2,2.28 nM
3,B3,0.684 nM
4,B4,0.984 nM
5,B5,1.19 nM
6,B6,2 nM
7,B7,0.287 nM
8,B8,1.01 nM

# Molecular target: T1, recombinant human HGF (R&D Systems, …)
# Assay: cell-based or functional assay
# Remark: another data set of the same source
row,Binder,"HGF-stimulated c-Met phosphorylation in PC-3 cells (assay of Example 9), Average of Two Trials"
1,B7,0.91 nM
2,B9,0.8 nM
3,B10,0.79 nM
4,B11,0.88 nM
5,B12,0.75 nM
6,B13,0.93 nM

# Molecular target: T1, recombinant human HGF (R&D Systems, …)
# Assay: cell-based or functional assay
# Remark: another data set of the same source
row,Binder,"IC50 (nM), HGF stimulated BrdU incorporation in 4MBr-5 cells"
1,B7,0.86 nM
2,B9,0.47 nM
3,B10,0.55 nM
4,B11,0.66 nM
5,B12,0.58 nM
6,B13,0.52 nM

# Molecular target: T1, recombinant human HGF (R&D Systems, …)
# Assay: cell-based or functional assay
# Remark: another data set of the same source
row,Binder,"IC50 (nM), HGF stimulated BrdU incorporation in 4MBr-5 cells"
1,B1,19.2 nM
2,B2,51.1 nM
3,B3,4.69 nM
4,B4,4.99 nM
5,B5,1.94 nM
6,B6,30.3 nM
7,B7,1.41 nM
8,B8,36.1 nM
